Laboratory results: patent US20030119019 (published 2003)

How the values were obtained:
[1] = target: GST::bov-rPrP25-242 (rPrPc) (Bos taurus, UniProt P10279 P10279:25-242); experiment: EMSA; conditions: tags: GST fusion, insect cells/baculovirus; label: 32P
[2] = target: GST::bov-rPrP93-242 (rPrP27-30 + 1 octarepeat) (Bos taurus, UniProt P10279 P10279:93-242); experiment: EMSA; conditions: tags: GST fusion, insect cells/baculovirus; label: 32P

B1: Ap2 motif II (ssRNA)
RNA: GGAGCUCAGCCUUCACUGCUACCUUAGAGUAGGAGCGGGACGAGGGGUUGUUGGGACGUGGGUAUGAUCCAUACAUUAGGAAGCUGGUGAGCUGGCACCACGGUCGGAUCCAC
B1: binds [1]; no binding [2].

B2: Ap1 motif I 60mer (ssRNA)
RNA: GCAAUGCGUUGUGUGGGAAUUUGAGGGACGAUGGGGAAGUGGGGACGAAUGACUCAUUGC
B2: binds [1]; no binding [2].
